B1: TPR t1 (parent)
chain: GACCAAUCUGCCCUCAGAGCUCGAGAACAUCUUCGGAUGCAGAGGAGGCAGGCUUCGGUGGCGCGAUAGCGCCAACGUCCUCAACCUCCAAUGCAUCCCACCACAUGAUGAUGCCUGAAGAGCCUUGGUUUUUUG

Variants of: B1
Assay: polymerase ribozyme fitness, log enrichment relative to wild type (log ratio); higher = more active; in vitro selection for triplet polymerase activity
Outline: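 Mutant libraries of each subunit of a heterodimeric triplet polymerase ribozyme were built by PCR and transcribed. Each library went through one round of in vitro selection in triplicate: annealing with biotinylated primer, partner subunit and triplets, frozen incubation at −7 °C, gel excision of extended constructs, streptavidin-bead capture and RT-PCR. Input and output libraries were Illumina-sequenced; only genotypes with ≥10 input reads and ≥1 read per output were kept. Fitness is log2(genotype enrichment/wild-type enrichment), using inverse-variance-weighted replicate averages.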

Row | Variant | polymerase ribozyme fitness (log ratio)
1 | U54A C98U U129G U133G | -3.2
2 | U54G U59C U130A | -1.81
3 | U55G C85A U92G U106A | -5.73
4 | U54A G61A | 0.266
5 | C53U C89A | -1.29
6 | U54G C115U | -0.94
7 | U54G G63C C86G C114A U133C | -3.86
8 | U54G C85G G113C A118C | -4.79
9 | U54A C70U C88G C89U C115A | -0.838
10 | U54A C72G C104U G113A | -3.29
11 | C53U C72U | -0.842
12 | C53U C72G | -0.46
13 | C53U C72A | 0.143
14 | C53U C123A | 1.2
15 | C53U A91C G120C U133C G135U | -0.968
16 | U54A A83U G110U | -3.19
17 | C53G U112C C124U | 1.27
18 | U54A C73A U78C C102A | -1.97
19 | U55C A90G C94G G110C U116A A121G | -5.82
20 | U54G U59A C80U C123A U129C | -1.82
21 | C53U G117C | -3.1
22 | C53U G117U | -2.22
23 | U55C G57A G69U C89U G110U U129A | -3.64
24 | U55G G58A U130A | -0.383

Row | Variant | polymerase ribozyme fitness (log ratio)
25 | U54A G58C C64U G110C | -5.03
26 | U55G C88A C115U C124A G128U | -4.24
27 | U55C A83G C85U C124A | 0.55
28 | U55A U81A G113A | -2.4
29 | C53U C115U G117C | -3.76
30 | U54C G61U U116A U131C | -2.5
31 | C53U G135U | -1.02
32 | U54C U96A | -0.835
33 | C53U C89U G135C | -0.361
34 | U54G U78A G93U | -4.13
35 | U55A G77C C104A | -1.93
36 | C53U U96G G113C | -2.77
37 | U54A C102U | -2.1
38 | C53G U125C | -2.29
39 | U54G C85A | -1.99
40 | U54C G120A | -0.357
41 | C53G G113U | -2.22
42 | C53U A111G | 0.578
43 | C53U U132C | -0.221
44 | C53U G120A | 0.773
45 | C53U G120U | -0.193
46 | U54A U106A | -1.04
47 | U55G C56G A68G | -5.14
48 | C53U U109A | -5.04

Row | Variant | polymerase ribozyme fitness (log ratio)
49 | U54C G122A | -0.596
50 | U55C G63U | -1.09
51 | U54G G60A | -4.1
52 | C53U C72G C104A A121C | -0.137
53 | C53U U87A | -0.467
54 | C53G U78C U81A C101A G120C A121C | -2.66
55 | U54C G69A U112C | -0.483
56 | U54A C72G | -0.955
57 | U54G C64U | -3.4
58 | U54C G58A U92C | -0.614
59 | U54C G61A U81A U96A | -1.36
60 | U55C G61U G113A | -1.64
61 | U54G G120A | -0.587
62 | C53U C72A C123A G128U | -0.319
63 | U55C C115G G122A | -1.84
64 | C53U A90C U96G A118U | -1.37
65 | U54A C62U C64U | -0.217
66 | U54C U59C A119G | 1.11
67 | U55C A111U A119C | -5.71
68 | C53U G71U U92A A119U C124U | -2.62
69 | U54A C73A C79A G107C A119G | -6.96
70 | C53U G57C A83C | -0.254
71 | U54C G110A | -1.29
72 | C53U C88A G110C | -4.54

Row | Variant | polymerase ribozyme fitness (log ratio)
73 | U55C A111U | -4.15
74 | U54A G61A U106A C124U U129G | -0.685
75 | U54G G63C C70U | -1.73
76 | C53U C62A G93C C104U | -1.76
77 | U55G C85U | -0.919
78 | C53G U112G C114A G135U | -5.63
79 | C53U G61C U106G C124G G135A | -0.0167
80 | C53U C101A | -0.961
81 | U54G G71A | -4.72
82 | U55A C124G | 1.88
83 | C53G U54G G63C | -3.77
84 | U54A C94U U109G | -5
85 | C53U C97G | -4.59
86 | C53U C62U U125A G128A U130A | -3.39
87 | U55C U59A C88U | -0.406
88 | U54C C97A | -5.83
89 | U54G | -0.214
90 | U54C | 0.321
91 | U54A | 0.0154
92 | C53U U54C A90G G122A | -0.961
93 | U55G C123G | 2.06
94 | U54C G77C C104U | -0.638
95 | U55G G57A | -0.536
96 | U55G C56U | -0.601

Row | Variant | polymerase ribozyme fitness (log ratio)
97 | U54G G60A U87A A95G G110C | -6.6
98 | U54A C102G U112G | -6.74
99 | U55A U59C G135U | -1.36
100 | C53U A121C | 2.13
101 | C53U A121G | 1.95
102 | U55G C56A U106A | -1.04
103 | U55G A121C G135U | 1.07
104 | U54A C70G A118G U133A G135U | -2.84
105 | U54A C86U C97U C101G | -2
106 | U55G C72G C82U A100U G113U | -5.31
107 | U54C G57U C115G | -1.53
108 | U55A G63A C73A | -1.05
109 | U54G C82A G120U | -0.425
110 | U54A C86U | 0.24
111 | C53U G63A U81A | -2.54
112 | U55A U81A | -0.637
113 | C53U G63A C102A A103U | -7.55
114 | C53U C73U C79A G127C | -1.71
115 | C53U G69C | -1.01
116 | C53U U81C U96A | -2.89
117 | U54G C124U | 1.5
118 | C53G G128C | -2.03
119 | C53U A68G | -2.76
120 | U54A A74U C124G | 0.443

Row | Variant | polymerase ribozyme fitness (log ratio)
121 | C53G G120C U125C | 0.247
122 | U54G G57A C72G C114U | -5.48
123 | U54A U59A C80A C82G C123U | -2.88
124 | U54G A68C C101A G113U | -7.46
125 | U55C U92G | -2.25
126 | C53U C101G U130A | -2.65
127 | U54A C56A | 0.502
128 | U54A C70U C73A C124U U129G | -0.505
129 | U54A C56A C124A | 1.58
130 | U55C C56U U78C G93A C101A | -1.12
131 | U54C G77U | -0.352
132 | C53G U87G | -0.632
133 | U55C G113U | -3.3
134 | U55C G113A | -1.89
135 | C53U C62G C64U C115A | -2.42
136 | U54C C64U G77U G113C U132A G135U | -3.36
137 | U54A G110A C115G | -4.1
138 | U54G G69U A121C U126A | -0.813
139 | C53U C56G C76G U125A | -0.978
140 | C53U C72A A91G | -1.6
141 | U55C C56U U59C | -0.103
142 | U55A C85A C115G | -3.37
143 | C53U G60A A84C | -0.485
144 | C53U C62U A95C | -1.08

Row | Variant | polymerase ribozyme fitness (log ratio)
145 | C53U C73U A90G | 0.151
146 | U54G U55G C73U C102G G110U G120C | -6.74
147 | U55G C104U G113C C123A | -3.72
148 | C53U G60A A83C U87C | -0.3
149 | U54A G71C C89U U129A | -2.49
150 | U54A G60A U78C C89U G120A U126A | -1.78
151 | C53U A118U G120C U133G | 0.183
152 | C53U C70U A74G G113C U133A | -2.94
153 | U54G U59C | -1.85
154 | U55C A111U G117A | -6.33
155 | U54C C82U A83C C115G G117A U129C | -4.19
156 | U54G C82A C94G C124U | 0.658
157 | U54G G71U A75C C98U U125C | -4.29
158 | U55A C73U C85A C115G | -3.38
159 | U54A G69A U78G C82G A121U U130A | -1.06
160 | U54C C56G U131G | -1.34
161 | U54A U59A G60C U106A C124A G128U | -0.601
162 | C53U A108U | -6.86
163 | U55G C56G U78A C99U U131A | -4.29
164 | U54G C62A A95C A121G | -6.12
165 | U54A C73A C88A | -0.61
166 | U54G G69C | -6.2
167 | U54G G69U | -0.782

From the RNAGym collection of RNA variant scans (doi:10.1073/pnas.2313332121)
